Measured values: patent publication US20140296131A1 (Novo Nordisk, published 2014)
Where no end group is shown, it is not given here. [ ]: non-standard residue; d: D form. Aib = CC(C)(N)C(=O)O

Experiments:
[1] = target: isolated N-terminal extracellular domain of the GLP-1 receptor (nGLP-1R) (UniProt P43220); assay: SPA competition: displacement of 125I-Exendin-4(9-39) from nGLP-1R
[2] = target: T1, human GLP-1 receptor (human, UniProt P43220 24-463); assay: cell-based or functional assay
[3] = target: T1, human GLP-1 receptor; assay: SPA competition: displacement of 125I-GLP-1 from BHK tk-ts13 membranes with the human GLP-1 receptor
Description: Test compounds/peptides, membranes, SPA-particles and [¹²⁵I] are diluted in assay buffer. 25 ul (micro liter) of test compounds/peptides are added to Optiplate. Buffer is added (50 ul). Add 5-10 ug protein/sample (50 ul) corresponding to 0.1-0.2 mg protein/ml (to be preferably optimised for each membrane preparation). Add SPA-particles (Wheatgerm agglutinin SPA beads) RPNQ 0001) 0.5 mg/well (50 ul). […] The plates are sealed with PlateSealer. Incubate for 120 minutes at 30° C. while shaking. The plates are centrifuged (1500 rpm, 10 min) and counted in Topcounter.

[4] = target: T2, isolated N-terminal extracellular domain of the GLP-1 receptor (nGLP-1R) (UniProt P43220 24-145, limits assumed, biotinylated with BNHS, immobilized on streptavidin-coated SPA beads); assay: SPA competition: displacement of 125I-Exendin-4(9-39) from biotinylated nGLP-1R on streptavidin SPA beads
T2 construct: extracellular domain; also called N-terminal GLP-1 receptor
Description: The nGLP1R in 0.1M NaHCO₃ was biotinylated using 75 μg BNHS (Sigma H1759) to 1 mg protein. The biotinylated nGLP1R was subsequently dialyzed against PBS. All reagents and derivatives were diluted in PBS with 0.05% v/v Tween 20. […] The plates were incubated on a shaker at RT for 3 hours. The SPA particles were spun down by centrifugation for 10 min at 1500 rpm and the plates were counted in a TopCount-NXT (PerkinElmer).

liraglutide (peptide) showed an IC50 [1] of 1500 nM.

B1: [Glu22, Arg26]GLP-1 (7-33) Amide (peptide)
peptide: HAEGTFTSDVSSYLEEQAAREFIAWLV-NH2
With B1 the “EC50 (potency, stimulation of cAMP formation)” value (“EC50” for short) [2] was under 0.3 nM.

B2: [Glu22, Val25, Arg26] GLP-1 (7-33)amide (peptide)
peptide: HAEGTFTSDVSSYLEEQAVREFIAWLV-NH2
With B2 the “EC50” value [2] was under 0.3 nM.

B3: truncated natural, human GLP-1(7-33) (peptide)
peptide: HAEGTFTSDVSSYLEGQAAKEFIAWLV
modifications: ends and bridges not checked
notes: also called truncated natural GLP-1; truncated natural GLP-1(7-3)) peptide
B3 was tested, and the IC50 [3] was 241 nM, the IC50 [4] was 886 nM and the “EC50” value [2] was 11.3 nM.

B4: [Aib8, Lys20, Glu22, Val25, Arg26, Glu30] GLP-1 (7-33) Amide (peptide)
peptide: H[Aib]EGTFTSDVSSYKEEQAVREFIEWLV-NH2
modifications: N-terminus assumed
SMILES: CC[C@H](C)[C@H](NC(=O)[C@H](Cc1ccccc1)NC(=O)[C@H](CCC(=O)O)NC(=O)[C@H](CCCNC(=N)N)NC(=O)[C@@H](NC(=O)[C@H](C)NC(=O)[C@H](CCC(N)=O)NC(=O)[C@H](CCC(=O)O)NC(=O)[C@H](CCC(=O)O)NC(=O)[C@H](CCCCN)NC(=O)[C@H](Cc1ccc(O)cc1)NC(=O)[C@H](CO)NC(=O)[C@H](CO)NC(=O)[C@@H](NC(=O)[C@H](CC(=O)O)NC(=O)[C@H](CO)NC(=O)[C@@H](NC(=O)[C@H](Cc1ccccc1)NC(=O)[C@@H](NC(=O)CNC(=O)[C@H](CCC(=O)O)NC(=O)C(C)(C)NC(=O)[C@@H](N)Cc1c[nH]cn1)[C@@H](C)O)[C@@H](C)O)C(C)C)C(C)C)C(=O)N[C@@H](CCC(=O)O)C(=O)N[C@@H](Cc1c[nH]c2ccccc12)C(=O)N[C@@H](CC(C)C)C(=O)N[C@H](C(N)=O)C(C)C
For B4, the “EC50” value [2] was under 0.3 nM.

B5: [Glu22, Arg26]GLP-1(7-33)peptide (peptide)
peptide: HAEGTFTSDVSSYLEEQAAREFIAWLV-OH
For B5, the “EC50” value [2] was under 0.3 nM.
